Laboratory results reported in PMC9637144.

Target: human IGF1R ectodomain (Δβ mutant) (human) (UniProt P08069)
Experiment: radioligand binding

- IC50: 0.4 nM
Substance: human IGF-1 (unlabeled) (from UniProt P05019 49-118) (ligand)
